The results in this text go back to patent US20240059759A1 (BIGHAT BIOSCIENCES, published 2024).

Test [1] deals with T1, SARS-CoV-1 RBD (SARS-CoV-1, UniProt P59594 306-527).
In test [2] the target is T1, SARS-CoV-1 RBD. The source holds these as a separate data set.

Usually EC50 stands for the concentration giving half of the maximal effect.

Bounds are passed on as bounds.

B1: VHH-72(S57G) (VHH)
VHH: QVQLQESGGGLVQAGGSLRLSCAASGRTFSEYAMGWFRQAPGKEREFVATISWSGGGTYYTDSVKGRFTISRDNAKNTVYLQMNSLKPDDTAVYYCAAAGLGTVVSEWDYDYDYWGQGTQVTVSS
Regarding B1, in the test with SARS-CoV-1 RBD [1], the “Rel. EC50 - ELISA” value was 0.3 relative to WT.

B2: VHH-72 (S57Y) (VHH)
VHH: QVQLQESGGGLVQAGGSLRLSCAASGRTFSEYAMGWFRQAPGKEREFVATISWSGGYTYYTDSVKGRFTISRDNAKNTVYLQMNSLKPDDTAVYYCAAAGLGTVVSEWDYDYDYWGQGTQVTVSS
In turn, B2 came in with an EC50 with SARS-CoV-1 RBD [2] greater than 10 µg/mL.

B3: VHH-72 (S57A) (VHH)
VHH: QVQLQESGGGLVQAGGSLRLSCAASGRTFSEYAMGWFRQAPGKEREFVATISWSGGATYYTDSVKGRFTISRDNAKNTVYLQMNSLKPDDTAVYYCAAAGLGTVVSEWDYDYDYWGQGTQVTVSS
As for B3, in the test with SARS-CoV-1 RBD [1], the “Rel. EC50 - ELISA” value was 0.43 relative to WT.
